In patent US20020012669A1:

Biological target: CRF2-4/zcytor11 heterodimeric receptor on BaF3/CRF2-4/zcytor11 cells (human) (UniProt Q8N6P7)
Assay: cell-based or functional assay

CRF2-4/zcytor11 heterodimeric receptor on BaF3/CRF2-4/zcytor11 cells (human), sequence (Q8N6P7 16-574 limits assumed, chain 1 of 2): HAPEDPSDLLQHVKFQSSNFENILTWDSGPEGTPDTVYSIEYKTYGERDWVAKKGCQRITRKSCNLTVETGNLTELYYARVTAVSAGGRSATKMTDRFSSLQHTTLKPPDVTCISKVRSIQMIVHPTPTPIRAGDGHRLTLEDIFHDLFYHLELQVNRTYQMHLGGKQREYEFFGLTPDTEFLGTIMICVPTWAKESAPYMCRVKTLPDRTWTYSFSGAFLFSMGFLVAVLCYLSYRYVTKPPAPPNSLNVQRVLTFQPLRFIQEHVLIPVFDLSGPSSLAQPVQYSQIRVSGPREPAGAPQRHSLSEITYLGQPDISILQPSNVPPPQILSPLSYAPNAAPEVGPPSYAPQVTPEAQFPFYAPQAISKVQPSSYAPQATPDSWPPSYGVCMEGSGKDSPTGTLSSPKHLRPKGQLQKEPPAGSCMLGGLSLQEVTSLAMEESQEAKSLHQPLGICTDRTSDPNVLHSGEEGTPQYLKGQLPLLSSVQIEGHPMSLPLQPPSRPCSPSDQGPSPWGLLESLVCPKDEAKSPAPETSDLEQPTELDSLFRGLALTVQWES
CRF2-4/zcytor11 heterodimeric receptor on BaF3/CRF2-4/zcytor11 cells (human), sequence (Q08334 20-325 limits assumed, chain 2 of 2, further chain): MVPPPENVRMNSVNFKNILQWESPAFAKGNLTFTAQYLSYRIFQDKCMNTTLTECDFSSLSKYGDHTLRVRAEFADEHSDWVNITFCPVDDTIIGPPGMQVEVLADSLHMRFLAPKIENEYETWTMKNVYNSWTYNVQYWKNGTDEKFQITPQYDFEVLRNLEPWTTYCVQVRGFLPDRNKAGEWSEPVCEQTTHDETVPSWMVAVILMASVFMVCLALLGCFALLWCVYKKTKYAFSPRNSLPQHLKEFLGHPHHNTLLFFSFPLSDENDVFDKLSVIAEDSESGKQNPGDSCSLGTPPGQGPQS

Alamar Blue proliferation of BaF3/CRF2-4/zcytor11 cells, IL-TIF-CEE at 0.06 ng/ml (fold induction): 2
Alamar Blue proliferation of BaF3/CRF2-4/zcytor11 cells, IL-TIF-CEE at 50 ng/ml (fold over background): 15
Substance: IL-TIF-CEE (human IL-TIF with C-terminal Glu-Glu tag) (from UniProt Q9GZX6 34-179) (ligand)
